Data on two substances can be found in patent publication US9512178B2, “Neurogenic brain-derived neurotrophic factor peptides” (Research Foundation for Mental Hygiene, Inc., priority 2012, dated 2016).

Holding throughout (assay type): cell-based
Experiment [1] has as its target T1, TrkB receptor (Homo sapiens, UniProt Q16620).
T1 construct: host or cells: NIH 3T3 fibroblasts, G418 selection
Nature of the experiment: TrkB expression in TrkB stably-expressing NIH-3T3 fibroblasts, time course. The conditions noted are these: 1 μM, 60 min. The protocol: (§1) To study the activation of the TrkB receptor with BDNF and/or with the peptides, NIH 3T3 cells were used, stably transfected with the TrkB receptor (obtained from Montreal Neurological Institute, Montreal, Quábec, Canada). The cell culture medium used for this cell line was: DMEM-high glucose, 10 percent normal calf serum, 1 percent glutamax, 1 percent sodium pyruvate, 1 percent penicillin-streptomycin; supplemented with the selection antibiotic G418 in a final concentration of 100 μg/ml (to guaranty the stable expression of the Trkb transgene). All Medium components were purchase from Gibco Life Technologies, Invitrogen, Grand Island, N.Y., USA.
The NIH 3T3 fibroblasts stably expressing the TrkB receptor were vehicle-treated or treated with BDNF peptides B-5 and B-3 at a concentration of 1 μM or with BDNF at a concentration of 20 ng/ml (0.79 nM) for 5, 15 or 60 min (FIG. 5E, F). […] The effect was time-dependent and was pronounced at 60 min treatment. […] The effect on the increase in expression of TrkB by Peptides B-5 and B-3 could be the way in which the peptides potentiate the BDNF pathway to avoid saturation of the receptors, and/or promote their neurotrophic effect by increasing the expressions of both BDNF (FIGS. 5A and 5B) and TrkB (FIGS. 5C through 5F).

For experiment [2], the target named is T2, TrkB receptor (Mus musculus, UniProt P15209).
T2 construct: endogenous in cells; host or cells: primary hippocampal neurons from embryonic day 18 C57BL/6 mice
T2 sequence (P15209 32-821): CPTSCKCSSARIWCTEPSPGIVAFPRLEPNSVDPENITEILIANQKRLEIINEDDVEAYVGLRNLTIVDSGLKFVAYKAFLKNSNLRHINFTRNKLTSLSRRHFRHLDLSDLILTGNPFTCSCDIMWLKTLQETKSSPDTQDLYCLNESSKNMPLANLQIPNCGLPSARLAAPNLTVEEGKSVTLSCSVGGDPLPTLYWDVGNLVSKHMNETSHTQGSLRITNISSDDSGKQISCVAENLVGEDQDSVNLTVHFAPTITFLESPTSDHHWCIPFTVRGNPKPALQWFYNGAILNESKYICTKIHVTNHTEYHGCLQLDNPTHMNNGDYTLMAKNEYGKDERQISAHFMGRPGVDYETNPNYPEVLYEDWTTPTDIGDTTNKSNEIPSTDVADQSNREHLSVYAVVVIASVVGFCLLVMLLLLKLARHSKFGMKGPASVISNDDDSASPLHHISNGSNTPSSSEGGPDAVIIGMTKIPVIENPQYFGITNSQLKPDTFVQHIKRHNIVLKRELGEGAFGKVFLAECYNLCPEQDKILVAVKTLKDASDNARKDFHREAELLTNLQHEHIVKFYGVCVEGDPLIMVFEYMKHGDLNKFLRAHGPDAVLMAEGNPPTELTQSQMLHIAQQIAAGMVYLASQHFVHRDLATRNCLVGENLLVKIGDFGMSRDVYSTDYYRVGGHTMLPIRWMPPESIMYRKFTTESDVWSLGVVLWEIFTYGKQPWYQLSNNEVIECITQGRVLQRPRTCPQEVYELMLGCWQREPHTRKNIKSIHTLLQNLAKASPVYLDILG
Nature of the experiment: TrkB phosphorylation (Tyr 706) and TrkB level in primary E18 hippocampal cells, with or without K252a. The conditions noted are these: 1 μM; for increase in the phosphorylation of the TrkB receptor: 5 min, without K252a; for TrkB levels / activation of TrkB (pTrkB Tyr 706 normalized to total TrkB): 1 h. As to the method:
Peptides were dissolved in water in serial dilutions of 10 mM, 1 mM, 100 μM and 10 μM from which the necessary amount was added directly to the culture medium to a final concentration of 0.05 μM, 1 μM, or 10 μM. The BDNF (Peprotech, NJ, USA) was used as a reference in concentrations of 20 ng/ml (0.79 nM) and 100 ng/ml (3.95 nM). Cycloheximide (CHX) (Sigma-Aldrich, St Louis, Mo., USA) was used for blocking protein synthesis. CHX original stock was 100 mg/ml (355.4 mM) in DMSO; from a second stock of 35.54 mM in DMSO, the dilutions were made to the final concentrations of 100 μM. The K252a (CALBIOCHEM/EMD) was used to inhibit the TrkB Receptor. From a stock of 100 μM in DMSO, K252a was diluted to a final working concentration of 200 nM. The E18 primary hippocampal cells were pre-treated with CHX or K252a 1 h prior to the addition of the peptides or BDNF and a time course of these treatments for 15 min, 60 min and 2 days was studied.
Following treatment in 6-well plates, cells were washed 2× in glucose buffered saline, GBS (5.4 mM KCl, 138 mM NaCl, 22 mM glucose, and 2 mM Na—KPO pH 7.2), and then lysed by 5 min incubation on ice in 100 or 150 μl of ice-cold RIPA buffer (PBS, 1% w/v NP-40 from Fisher Scientific, 0.1% w/v SDS, and 0.5% w/v sodium desoxycholate) containing 1 mM AEBSF (Gold Biotechnology, St. Louis, Mo., USA), 10 μg/ml aprotinin (Sigma-Aldrich, St. Louis, Mo., USA), and 20 μg/ml of leupeptin and pepstatin (US Biochemicals, Cleveland, Ohio, USA), and phosphatase inhibitors: NaF, Na orthovanadate, (3-glycerophosphate, and microcystein (Sigma-Aldrich, St. Louis, Mo., USA). Extracts were prepared by collecting and pooling a minimum of 2 wells by scraping, and lysates were centrifuged at 20,000×g for 10 min at 4° C. Protein concentration of each cell lysate was determined using the BCA kit (Thermo Scientific, Rockford, Ill., USA). The lysates (7.5-20 μg total protein) were separated on 10% SDS-PAGE gels (except for BDNF where 12% gels were employed) and transferred to 0.45 μm PVDF membrane (Pall, Pensacola, Fla., USA) for probing with antibodies as noted. Blots were blocked for 1 hr at 37° C. in 1×TBST (0.05% Tween 20 in TBS) containing 5% w/v blotting grade dry milk (Bio-rad, Hercules, Calif., USA), incubated in primary antibody overnight in blocking buffer at 4° C., washed 3×10 min in TBST at room temperature, followed by incubation with secondary antibody, i.e., peroxidase-conjugated anti-mouse or anti rabbit IgG (Jackson ImmunoResearch Laboratories, West Grove, Pa., USA) diluted in blocking buffer. Blots were washed 3×10 min in TBST and immunoreactive protein bands were visualized with enhanced chemiluminescence (ECL) reagents (Pierce, Rockford, Ill., USA). The ECL films of the blots were scanned and analyzed using Multi Gauge software version 3.0 (Fujifilm, Tokyo, Japan).
The following primary antibodies were used: rabbit polyclonal anti-NFM (1:1000; Chemicon/Millipore, Billerica, Mass., USA); mouse monoclonal anti-NeuN, clone A60 (1:500; Millipore, Billerica, Mass., USA); rabbit polyclonal anti-Tuj-1, (3—III-tubulin (Covance; 1:800, Emeryville, Calif., USA); mouse monoclonal SMI 52 to the adult isoforms of MAP-2, MAP2a,b (1:1000; Covance, Emeryvilly, Calif., USA); rabbit polyclonal anti-Synapsin I (1:2000; Stressgen, Farmingdale, N.Y., USA); rabbit monoclonal anti-PSD95 (1:1000; Cell signaling, Danvers, Mass., USA); anti tau 92e (1:10000); mouse monoclonal anti-BDNF (1:1000; Calbiochem, Gibbstown, N.J., USA); rabbit polyclonal anti-TrkB (total) (1:500; Santa Cruz Biotechnology, Santa Cruz, Calif., USA); rabbit polyclonal anti-pTrkB (Tyr706) (1:400; Santa Cruz Biotechnology, Santa Cruz, Calif., USA), TrkC (1:1000; Cruz Biotechnology, Santa Cruz, Calif., USA); and pTrkY490 (1:500; Upstate USA Inc., Charlottesville, Va., USA). For loading control, the blots were developed with rabbit polyclonal antibody to GAPDH (1:2000; Santa Cruz Biotechnology, Santa Cruz, Calif., USA). […]

Experiment [3] addresses T1, TrkB receptor. Nature of the experiment: Competition with BDNF for activation (pTrkB) of TrkB in NIH 3T3 cells stably expressing TrkB. The conditions noted are these: 0.05 μM to 10 μM with BDNF 1 ng/ml (0.04 nM), 15 min; dose-dependent. The protocol:
as §1
To evaluate a possible competitive role of the peptides in the activation of TrkB receptor by BDNF, a fibroblast (NIH 3T3) cell line stably expressing the TrkB receptor was used. Cells were vehicle-treated or treated with BDNF 1 ng/ml (0.04 nM) in the presence or absence of 0.05 μM to 10 μM B-5 or B-3 for 15 min (FIG. 7A). […] As observed in primary neuronal cultures (shown in FIGS. 5C and D), the treatment with the peptides alone for 15 min induced a weak but significant activation of TrkB receptor when compared to control (ANOVA, p<0.001).

T1 sequence (Q16620 32-822): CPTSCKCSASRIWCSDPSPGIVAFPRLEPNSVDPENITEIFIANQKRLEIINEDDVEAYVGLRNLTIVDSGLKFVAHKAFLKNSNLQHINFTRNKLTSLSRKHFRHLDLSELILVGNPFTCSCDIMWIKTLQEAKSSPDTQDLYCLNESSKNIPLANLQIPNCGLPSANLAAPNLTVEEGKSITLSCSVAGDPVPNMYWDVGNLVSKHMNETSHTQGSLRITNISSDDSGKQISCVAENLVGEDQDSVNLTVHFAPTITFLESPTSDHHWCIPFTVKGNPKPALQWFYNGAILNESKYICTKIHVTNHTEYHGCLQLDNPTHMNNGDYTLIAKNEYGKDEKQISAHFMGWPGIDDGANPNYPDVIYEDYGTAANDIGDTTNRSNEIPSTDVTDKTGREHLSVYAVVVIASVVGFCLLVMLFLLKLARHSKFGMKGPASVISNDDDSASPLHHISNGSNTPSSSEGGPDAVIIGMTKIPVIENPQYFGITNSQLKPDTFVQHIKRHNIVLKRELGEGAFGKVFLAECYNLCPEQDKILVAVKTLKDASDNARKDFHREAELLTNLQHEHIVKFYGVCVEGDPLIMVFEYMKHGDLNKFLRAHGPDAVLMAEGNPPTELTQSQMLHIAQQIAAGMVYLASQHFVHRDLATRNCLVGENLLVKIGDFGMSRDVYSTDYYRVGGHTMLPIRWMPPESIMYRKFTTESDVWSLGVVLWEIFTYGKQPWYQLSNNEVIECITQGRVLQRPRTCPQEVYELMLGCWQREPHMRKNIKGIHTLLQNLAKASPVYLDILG

Take Ac-I-K-R-G-CONH2 [Peptide B-5]: the “expression of the receptor TrkB” value in experiment [1] is listed as “marked increase”. Also, in experiment [2], the “increase in the phosphorylation of the TrkB receptor” value is “significant”, the TrkB levels result was “increased” and the “activation of TrkB (pTrkB Tyr 706 normalized to total TrkB)” value is reported as “relatively weak activation”. Moreover, the “competitive inhibition of the activation of TrkB receptor by BDNF” value in experiment [3] is given as “significant competitive inhibition”.
On to Ac-S-KKR-CONH2 [Peptide B-3], for which the “expression of the receptor TrkB” value in experiment [1] is listed as “marked increase”. For the same substance, in experiment [2], the “increase in the phosphorylation of the TrkB receptor” value was “significant”, the TrkB levels entry is recorded as “increased” and the “activation of TrkB (pTrkB Tyr 706 normalized to total TrkB)” value was “relatively weak activation”. Further, in experiment [3], the “competitive inhibition of the activation of TrkB receptor by BDNF” value is given as “significant competitive inhibition”.
